Experimental data reported in patent US20240352127A1.

Tests used:
[1] = molecular target: human PD-L1 on cells (human) (UniProt Q9NZQ7); test: FACS staining of HCT116 cells with control antibody (expression profile), triplicates
[2] = molecular target: human PD-L1 on cells (human) (UniProt Q9NZQ7); test: FACS staining of MDA-MB-231 cells with control antibody (expression profile), triplicates

Sequence of human PD-L1 on cells (human) (Q9NZQ7 19-290 limits assumed): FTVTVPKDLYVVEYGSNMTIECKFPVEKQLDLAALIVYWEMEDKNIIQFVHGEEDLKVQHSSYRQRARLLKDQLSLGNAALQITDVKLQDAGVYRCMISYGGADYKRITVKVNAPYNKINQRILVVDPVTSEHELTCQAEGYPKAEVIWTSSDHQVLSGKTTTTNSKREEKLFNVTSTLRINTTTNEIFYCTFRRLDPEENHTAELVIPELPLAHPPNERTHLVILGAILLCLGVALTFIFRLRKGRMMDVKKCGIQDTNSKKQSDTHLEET

anti-PD-L1 RG7446 MPDL3280A (antibody)
MFI [1]: 10900 MFI
MFI [2]: 74600 MFI
